Measurements published in article PMC5651264.

Molecular target: His-tagged FRUCTOKINASE6 (FRK6-His) (Arabidopsis thaliana)

Substance: GST-tagged TWIN SISTER OF FT (GST-TSF) (from UniProt Q9S7R5 1-175) (natural protein)
- formazan staining of a native PAGE gel (fructokinase enzyme activity staining), 1 μg FRK6-His with 1 μg His-TSF (the His-tagged TSF, not the GST fusion), against FRK6-His alone: 2 fold
